Data as given in the supplement of paper PMC5998384.

Key:
[1] = test system: HeLa Kyoto; assay: thermal stability score vs G1/S (z-score of summed log2 fold changes over temperatures); higher = more thermally stable than in G1/S
[2] = test system: HeLa Kyoto; assay: solubility in G1/S (NP-40 vs SDS abundance) (log2 ratio); higher = more soluble; conditions: cell cycle stage: G1/S
[3] = test system: HeLa Kyoto; assay: solubility change mitosis vs G1/S (difference of NP-40 vs SDS log2 ratios) (log2 ratio difference); higher = more soluble in mitosis
[4] = test system: HeLa Kyoto; assay: melting temperature (median over replicates), in situ; higher = more thermally stable
[5] = cell cycle stage: early G1 (4.5 h after nocodazole release)
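Throughout, for melting temperature (median over replicates), in situ: HeLa Kyoto cells synchronized by double thymidine or nocodazole block, proteins quantified by TMT10plex mass spectrometry, three independent biological replicates.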
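Throughout, for solubility change mitosis vs G1/S (difference of NP-40 vs SDS log2 ratios): synchronized HeLa Kyoto cells (double thymidine block for G1/S, nocodazole release for mitosis), protein amounts in NP-40 versus SDS lysates quantified by mass spectrometry, three biological replicates.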
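Throughout, for solubility in G1/S (NP-40 vs SDS abundance): HeLa Kyoto cells arrested at G1/S by double thymidine block, proteins quantified by TMT10plex mass spectrometry in mild NP-40 versus SDS extracts, three biological replicates.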
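Throughout, for thermal stability score vs G1/S (z-score of summed log2 fold changes over temperatures): synchronized HeLa Kyoto cells, proteins quantified by TMT10plex mass spectrometry, three biological replicates, mitosis taken 0.5 h after nocodazole release, G1/S directly after double thymidine block.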

Row | Sequence | thermal stability score [1, 5] | thermal stability score ([1]; cell cycle stage: mitosis) | solubility in G1/S (log2) [2] | solubility change mitosis (log2) [3] | melting temperature ([4]; cell cycle stage: G1/S) | melting temperature ([4]; cell cycle stage: mitosis)
1 | MTHEEHHAAKTLGIGKAIAVLTSGGDAQGMNAAVRAVVRVGIFTGARVFFVHEGYQGLVDGGDHIKEATWESVSMMLQLGGTVIGSARCKDFREREGRLRAAYNLVKRGITNLCVIGGDGSLTGADTFRSEWSDLLSDLQKAGKITDEEATKSSYLNIVGLVGSIDNDFCGTDMTIGTDSALHRIMEIVDAITTTAQSHQRTFVLEVMGRHCGYLALVTSLSCGADWVFIPECPPDDDWEEHLCRRLSETRTRGSRLNIIIVAEGAIDKNGKPITSEDIKNLVVKRLGYDTRVTVLGHVQRGGTPSAFDRILGSRMGVEAVMALLEGTPDTPACVVSLSGNQAVRLPLMECVQVTKDVTKAMDEKKFDEALKLRGRSFMNNWEVYKLLAHVRPPVSKSGSHTVAVMNVGAPAAGMNAAVRSTVRIGLIQGNRVLVVHDGFEGLAKGQIEEAGWSYVGGWTGQGGSKLGTKRTLPKKSFEQISANITKFNIQGLVIIGGFEAYTGGLELMEGRKQFDELCIPFVVIPATVSNNVPGSDFSVGADTALNTICTTCDRIKQSAAGTKRRVFIIETMGGYCGYLATMAGLAAGADAAYIFEEPFTIRDLQANVEHLVQKMKTTVKRGLVLRNEKCNENYTTDFIFNLYSEEGKGIFDSRKNVLGHMQQGGSPTPFDRNFATKMGAKAMNWMSGKIKESYRNGRIFANTPDSGCVLGMRKRALVFQPVAELKDQTDFEHRIPKEQWWLKLRPILKILAKYEIDLDTSDHAHLEHITRKRSGEAAV [PFKM] | -1.59 | -1.13 | 0.0079 | -0.181 | 59.6 °C | 59.7 °C
2 | MLPSLQESMDGDEKELESSEEGGSAEERRLEPPSSSHYCLYSYRGSRLAQQRGDSEDGSPSGTNAETPSGDDFSLSLADTNLPSEVEPELRSFIAKRLSRGAVFEGLGNVASVELKIPGYRVGCYYCLFQNEKLLPETVTIDSERNPSEYVVCFLGGSEKGLELFRLELDKYIQGLKNNMNCEARGLESHIKSYLSSWFEDVVCPIQRVVLLFQEKLTFLLHAALSYTPVEVKESDEKTKRDINRFLSVASLQGLIHEGTMTSLCMAMTEEQHKSVVIDCSSSQPQFCNAGSNRFCEDWMQAFLNGAKGGNPFLFRQVLENFKLKAIQDTNNLKRFIRQAEMNHYALFKCYMFLKNCGSGDILLKIVKVEHEEMPEAKNVIAVLEEFMKEALDQSF [C17ORF75] | -0.255 | -0.352 | 0.283 | -0.159 | 51.5 °C | 51.7 °C
3 | MATFISVQLKKTSEVDLAKPLVKFIQQTYPSGGEEQAQYCRAAEELSKLRRAAVGRPLDKHEGALETLLRYYDQICSIEPKFPFSENQICLTFTWKDAFDKGSLFGGSVKLALASLGYEKSCVLFNCAALASQIAAEQNLDNDEGLKIAAKHYQFASGAFLHIKETVLSALSREPTVDISPDTVGTLSLIMLAQAQEVFFLKATRDKMKDAIIAKLANQAADYFGDAFKQCQYKDTLPKEVFPVLAAKHCIMQANAEYHQSILAKQQKKFGEEIARLQHAAELIKTVASRYDEYVNVKDFSDKINRALAAAKKDNDFIYHDRVPDLKDLDPIGKATLVKSTPVNVPISQKFTDLFEKMVPVSVQQSLAAYNQRKADLVNRSIAQMREATTLANGVLASLNLPAAIEDVSGDTVPQSILTKSRSVIEQGGIQTVDQLIKELPELLQRNREILDESLRLLDEEEATDNDLRAKFKERWQRTPSNELYKPLRAEGTNFRTVLDKAVQADGQVKECYQSHRDTIVLLCKPEPELNAAIPSANPAKTMQGSEVVNVLKSLLSNLDEVKKEREGLENDLKSVNFDMTSKFLTALAQDGVINEEALSVTELDRVYGGLTTKVQESLKKQEGLLKNIQVSHQEFSKMKQSNNEANLREEVLKNLATAYDNFVELVANLKEGTKFYNELTEILVRFQNKCSDIVFARKTERDELLKDLQQSIAREPSAPSIPTPAYQSSPAGGHAPTPPTPAPRTMPPTKPQPPARPPPPVLPANRAPSATAPSPVGAGTAAPAPSQTPGSAPPPQAQGPPYPTYPGYPGYCQMPMPMGYNPYAYGQYNMPYPPVYHQSPGQAPYPGPQQPSYPFPQPPQQSYYPQQ [PDCD6IP] | -2.03 | -1.7 | 0.366 | -0.0427 | 48.7 °C | 48.6 °C
